According to patent US20220229068A1, “DETECTION OF PROTEIN TO PROTEIN INTERACTIONS” (THE GOVERNING COUNCIL OF THE UNIVERSITY OF TORONTO, priority 2019, published 2022):
Values belong to the binder of their own block, whether it stands above or below them.

Key:
Assay in all cases: SIMPL ELISA, bait-IN/prey-CIC
[1] = target: T1, MAD1L1 (prey, CIC format) (human) (UniProt Q9Y6D9)
T1 sequence (looked up): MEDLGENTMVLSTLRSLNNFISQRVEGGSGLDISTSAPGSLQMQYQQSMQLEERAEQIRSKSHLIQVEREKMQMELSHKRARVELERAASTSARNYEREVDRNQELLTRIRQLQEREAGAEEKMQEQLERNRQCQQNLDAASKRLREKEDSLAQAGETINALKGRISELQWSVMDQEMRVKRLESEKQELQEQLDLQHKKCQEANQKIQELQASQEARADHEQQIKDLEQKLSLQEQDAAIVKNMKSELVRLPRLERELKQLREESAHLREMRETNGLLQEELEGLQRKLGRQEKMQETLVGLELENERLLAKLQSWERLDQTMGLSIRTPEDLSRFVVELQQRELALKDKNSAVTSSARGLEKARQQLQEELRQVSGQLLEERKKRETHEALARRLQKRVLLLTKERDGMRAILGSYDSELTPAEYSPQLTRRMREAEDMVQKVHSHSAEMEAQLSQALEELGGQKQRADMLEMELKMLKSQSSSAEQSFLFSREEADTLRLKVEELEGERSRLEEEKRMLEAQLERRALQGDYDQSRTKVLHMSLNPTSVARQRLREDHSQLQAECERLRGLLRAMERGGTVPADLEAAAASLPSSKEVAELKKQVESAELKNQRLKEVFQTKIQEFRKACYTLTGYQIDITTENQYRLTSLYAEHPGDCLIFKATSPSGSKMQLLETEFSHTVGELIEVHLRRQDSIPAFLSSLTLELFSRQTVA

[2] = target: T2, MCM5 (prey, CIC format) (human) (UniProt P33992)
T2 sequence (looked up): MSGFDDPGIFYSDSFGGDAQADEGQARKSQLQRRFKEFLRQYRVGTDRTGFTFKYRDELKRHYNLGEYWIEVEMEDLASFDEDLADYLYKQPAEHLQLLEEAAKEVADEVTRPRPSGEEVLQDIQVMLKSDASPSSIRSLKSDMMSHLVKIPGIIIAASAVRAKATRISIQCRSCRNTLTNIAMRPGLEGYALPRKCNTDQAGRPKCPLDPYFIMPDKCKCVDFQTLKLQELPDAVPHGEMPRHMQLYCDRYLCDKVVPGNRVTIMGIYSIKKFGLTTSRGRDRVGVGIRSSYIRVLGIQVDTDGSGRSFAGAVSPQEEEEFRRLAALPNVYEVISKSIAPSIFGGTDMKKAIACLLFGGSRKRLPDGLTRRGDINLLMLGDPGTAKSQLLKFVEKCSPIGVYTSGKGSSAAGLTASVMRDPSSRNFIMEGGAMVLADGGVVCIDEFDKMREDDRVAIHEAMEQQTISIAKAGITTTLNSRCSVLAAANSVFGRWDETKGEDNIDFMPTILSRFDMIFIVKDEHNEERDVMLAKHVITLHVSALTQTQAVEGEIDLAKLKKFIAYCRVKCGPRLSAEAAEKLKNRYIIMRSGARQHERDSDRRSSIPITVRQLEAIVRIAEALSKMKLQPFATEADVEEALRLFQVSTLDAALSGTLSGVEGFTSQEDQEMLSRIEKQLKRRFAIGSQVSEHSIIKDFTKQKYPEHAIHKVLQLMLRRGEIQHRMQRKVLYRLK

[3] = target: T3, NTF4 (prey, CIC format) (human) (UniProt P34130)
T3 sequence (looked up): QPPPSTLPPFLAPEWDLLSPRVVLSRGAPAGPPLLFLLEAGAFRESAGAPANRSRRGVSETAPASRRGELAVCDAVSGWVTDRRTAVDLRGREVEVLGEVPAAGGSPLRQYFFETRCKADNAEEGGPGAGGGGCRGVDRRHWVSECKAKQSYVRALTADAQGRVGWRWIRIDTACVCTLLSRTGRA

[4] = target: EIF3E (prey, CIC format) (human) (UniProt P60228)
[5] = target: RELA (prey, CIC format) (human) (UniProt Q04206)
[6] = target: T4, ORC4 (prey, CIC format) (human) (UniProt O43929)
T4 sequence (looked up): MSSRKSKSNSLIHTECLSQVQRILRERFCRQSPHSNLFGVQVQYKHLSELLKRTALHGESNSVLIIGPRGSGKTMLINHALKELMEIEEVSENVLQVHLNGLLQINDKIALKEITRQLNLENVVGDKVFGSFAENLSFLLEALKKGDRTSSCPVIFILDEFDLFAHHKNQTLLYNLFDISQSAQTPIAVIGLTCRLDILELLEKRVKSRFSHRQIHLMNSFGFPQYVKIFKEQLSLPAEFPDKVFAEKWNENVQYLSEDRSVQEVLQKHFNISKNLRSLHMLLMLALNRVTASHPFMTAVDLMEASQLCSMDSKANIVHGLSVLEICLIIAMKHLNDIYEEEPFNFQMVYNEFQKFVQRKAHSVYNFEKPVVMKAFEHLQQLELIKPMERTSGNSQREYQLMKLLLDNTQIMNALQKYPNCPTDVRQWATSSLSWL

[7] = target: HBB (prey, CIC format) (human) (UniProt P68871)
[8] = target: UBE2I (prey, CIC format) (human) (UniProt P63279)
[9] = target: T5, MCM10 (prey, CIC format) (human) (UniProt Q7L590)
T5 sequence (looked up): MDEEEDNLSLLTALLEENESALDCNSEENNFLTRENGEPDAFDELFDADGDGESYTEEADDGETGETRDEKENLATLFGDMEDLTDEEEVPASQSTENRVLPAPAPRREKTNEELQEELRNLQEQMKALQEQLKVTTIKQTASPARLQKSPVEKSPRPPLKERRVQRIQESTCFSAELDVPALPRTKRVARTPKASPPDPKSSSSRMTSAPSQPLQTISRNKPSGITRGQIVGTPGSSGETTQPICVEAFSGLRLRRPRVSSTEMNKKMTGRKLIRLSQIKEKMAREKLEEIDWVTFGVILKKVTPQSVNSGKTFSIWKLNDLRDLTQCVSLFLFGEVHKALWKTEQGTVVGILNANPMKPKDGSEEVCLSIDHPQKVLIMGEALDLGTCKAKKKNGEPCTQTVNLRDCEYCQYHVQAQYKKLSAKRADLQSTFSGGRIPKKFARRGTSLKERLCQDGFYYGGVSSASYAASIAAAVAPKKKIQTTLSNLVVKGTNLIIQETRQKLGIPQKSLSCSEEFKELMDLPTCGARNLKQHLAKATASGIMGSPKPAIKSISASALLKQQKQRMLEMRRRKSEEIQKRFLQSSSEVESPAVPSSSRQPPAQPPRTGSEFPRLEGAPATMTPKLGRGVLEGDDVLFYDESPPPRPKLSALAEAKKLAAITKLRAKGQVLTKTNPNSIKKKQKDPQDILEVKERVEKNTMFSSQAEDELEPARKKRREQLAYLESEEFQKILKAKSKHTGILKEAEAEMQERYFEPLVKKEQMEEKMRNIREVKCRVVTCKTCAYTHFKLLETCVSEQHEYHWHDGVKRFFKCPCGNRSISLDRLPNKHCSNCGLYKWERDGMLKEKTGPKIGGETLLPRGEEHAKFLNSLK

[10] = target: T6, FRS2 (prey, CIC format) (human) (UniProt Q8WU20)
T6 sequence (looked up): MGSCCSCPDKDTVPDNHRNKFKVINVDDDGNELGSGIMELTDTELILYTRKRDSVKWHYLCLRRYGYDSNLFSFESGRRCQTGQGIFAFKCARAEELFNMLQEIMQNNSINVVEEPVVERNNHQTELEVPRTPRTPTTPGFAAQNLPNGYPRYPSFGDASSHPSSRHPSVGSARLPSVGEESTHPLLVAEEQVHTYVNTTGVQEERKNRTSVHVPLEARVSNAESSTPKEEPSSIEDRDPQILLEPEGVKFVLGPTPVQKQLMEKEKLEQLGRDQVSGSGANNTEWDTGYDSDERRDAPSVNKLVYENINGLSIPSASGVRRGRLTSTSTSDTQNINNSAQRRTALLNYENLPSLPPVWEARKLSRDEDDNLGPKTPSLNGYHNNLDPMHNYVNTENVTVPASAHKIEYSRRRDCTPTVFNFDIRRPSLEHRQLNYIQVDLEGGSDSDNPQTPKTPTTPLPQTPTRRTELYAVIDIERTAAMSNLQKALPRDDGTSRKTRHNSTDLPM

Sequence of HBB (prey, CIC format) (human) (P68871 whole entry): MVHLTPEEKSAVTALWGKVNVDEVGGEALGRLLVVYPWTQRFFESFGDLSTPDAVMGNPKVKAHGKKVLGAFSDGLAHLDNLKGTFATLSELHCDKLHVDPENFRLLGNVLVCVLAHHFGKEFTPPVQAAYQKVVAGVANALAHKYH
Sequence of UBE2I (prey, CIC format) (human) (P63279 whole entry): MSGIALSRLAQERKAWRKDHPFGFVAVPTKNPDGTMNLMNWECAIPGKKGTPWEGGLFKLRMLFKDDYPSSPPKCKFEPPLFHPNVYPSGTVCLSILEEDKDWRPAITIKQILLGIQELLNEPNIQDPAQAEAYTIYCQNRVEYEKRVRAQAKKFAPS
Sequence of EIF3E (prey, CIC format) (human) (P60228 whole entry): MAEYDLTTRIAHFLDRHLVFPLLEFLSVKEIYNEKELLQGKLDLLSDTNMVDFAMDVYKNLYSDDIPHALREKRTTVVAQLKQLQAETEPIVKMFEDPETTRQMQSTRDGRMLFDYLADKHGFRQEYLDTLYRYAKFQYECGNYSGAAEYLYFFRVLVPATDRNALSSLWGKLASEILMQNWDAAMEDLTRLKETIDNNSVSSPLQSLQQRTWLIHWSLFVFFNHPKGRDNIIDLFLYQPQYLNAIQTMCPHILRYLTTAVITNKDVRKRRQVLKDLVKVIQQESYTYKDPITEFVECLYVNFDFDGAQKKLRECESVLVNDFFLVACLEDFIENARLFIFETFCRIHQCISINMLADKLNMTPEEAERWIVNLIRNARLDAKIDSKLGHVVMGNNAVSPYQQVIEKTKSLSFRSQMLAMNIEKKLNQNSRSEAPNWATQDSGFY
Sequence of RELA (prey, CIC format) (human) (Q04206 whole entry): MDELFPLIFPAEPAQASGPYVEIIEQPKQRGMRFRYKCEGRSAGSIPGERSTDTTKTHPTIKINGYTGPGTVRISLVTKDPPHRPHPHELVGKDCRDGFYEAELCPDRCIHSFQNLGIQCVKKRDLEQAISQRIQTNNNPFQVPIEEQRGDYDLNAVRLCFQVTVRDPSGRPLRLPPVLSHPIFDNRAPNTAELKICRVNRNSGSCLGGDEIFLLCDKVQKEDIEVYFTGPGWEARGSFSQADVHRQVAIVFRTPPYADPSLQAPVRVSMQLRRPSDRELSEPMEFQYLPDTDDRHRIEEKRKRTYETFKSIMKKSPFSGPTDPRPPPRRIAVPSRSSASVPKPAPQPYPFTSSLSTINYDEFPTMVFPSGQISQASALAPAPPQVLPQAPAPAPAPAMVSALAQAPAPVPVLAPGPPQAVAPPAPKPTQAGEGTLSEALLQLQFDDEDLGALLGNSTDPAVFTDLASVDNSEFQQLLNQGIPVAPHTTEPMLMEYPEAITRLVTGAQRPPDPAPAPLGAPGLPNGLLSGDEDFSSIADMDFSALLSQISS

- PLU mean [4]: 0.676
- PLU mean [5]: 0.328
B2: IFIT1 (bait, IN format) (protein, human, UniProt P09914 1-478, looked up)
chain: MSTNGDDHQVKDSLEQLRCHFTWELSIDDDEMPDLENRVLDQIEFLDTKYSVGIHNLLAYVKHLKGQNEEALKSLKEAENLMQEEHDNQANVRSLVTWGNFAWMYYHMGRLAEAQTYLDKVENICKKLSNPFRYRMECPEIDCEEGWALLKCGGKNYERAKACFEKVLEVDPENPESSAGYAISAYRLDGFKLATKNHKPFSLLPLRQAVRLNPDNGYIKVLLALKLQDEGQEAEGEKYIEEALANMSSQTYVFRYAAKFYRRKGSVDKALELLKKALQETPTSVLLHHQIGLCYKAQMIQIKEATKGQPRGQNREKLDKMIRSAIFHFESAVEKKPTFEVAHLDLARMYIEAGNHRKAEENFQKLLCMKPVVEETMQDIHFHYGRFQEFQKKSDVNAIIHYLKAIKIEQASLTRDKSINSLKKLVLRKLRRKALDLESLSLLGFVYKLEGNMNEALEYYERALRLAADFENSVRQGP

- PLU mean [10]: 0.474
B4: PTPN11 (bait, IN format) (enzyme, human, UniProt Q06124 1-593, looked up)
chain: MTSRRWFHPNITGVEAENLLLTRGVDGSFLARPSKSNPGDFTLSVRRNGAVTHIKIQNTGDYYDLYGGEKFATLAELVQYYMEHHGQLKEKNGDVIELKYPLNCADPTSERWFHGHLSGKEAEKLLTEKGKHGSFLVRESQSHPGDFVLSVRTGDDKGESNDGKSKVTHVMIRCQELKYDVGGGERFDSLTDLVEHYKKNPMVETLGTVLQLKQPLNTTRINAAEIESRVRELSKLAETTDKVKQGFWEEFETLQQQECKLLYSRKEGQRQENKNKNRYKNILPFDHTRVVLHDGDPNEPVSDYINANIIMPEFETKCNNSKPKKSYIATQGCLQNTVNDFWRMVFQENSRVIVMTTKEVERGKSKCVKYWPDEYALKEYGVMRVRNVKESAAHDYTLRELKLSKVGQGNTERTVWQYHFRTWPDHGVPSDPGGVLDFLEEVHHKQESIMDAGPVVVHCSAGIGRTGTFIVIDILIDIIREKGVDCDIDVPKTIQMVRSQRSGMVQTEAQYRFIYMAVQHYIETLQRRIEEEQKSKRKGHEYTNIKYSLADQTSGDQSPLPPCTPTPPCAEMREDSARVYENVGLMQQQKSFR

The next lines start with the binder.

B1: BDNF (bait, IN format) (ligand, human, UniProt P23560 19-247, looked up)
chain: APMKEANIRGQGGLAYPGVRTHGTLESVNGPKAGSRGLTSLADTFEHVIEELLDEDQKVRPNEENNKDADLYTSRVMLSSQVPLEPPLLFLLEEYKNYLDAANMSMRVRRHSDPARRGELSVCDSISEWVTAADKKTAVDMSGGTVTVLEKVPVSKGQLKQYFYETKCNPMGYTKEGCRGIDKRHWNSQCRTTQSYVRALTMDSKKRIGWRFIRIDTSCVCTLTIKRGR
- PLU mean [1]: 0.19
- PLU mean [2]: 0.22
- PLU mean [3]: 0.629

B3: ORC2 (bait, IN format) (protein, human, UniProt Q13416 1-577, looked up)
chain: MSKPELKEDKMLEVHFVGDDDVLNHILDREGGAKLKKERAQLLVNPKKIIKKPEYDLEEDDQEVLKDQNYVEIMGRDVQESLKNGSATGGGNKVYSFQNRKHSEKMAKLASELAKTPQKSVSFSLKNDPEITINVPQSSKGHSASDKVQPKNNDKSEFLSTAPRSLRKRLIVPRSHSDSESEYSASNSEDDEGVAQEHEEDTNAVIFSQKIQAQNRVVSAPVGKETPSKRMKRDKTSDLVEEYFEAHSSSKVLTSDRTLQKLKRAKLDQQTLRNLLSKVSPSFSAELKQLNQQYEKLFHKWMLQLHLGFNIVLYGLGSKRDLLERFRTTMLQDSIHVVINGFFPGISVKSVLNSITEEVLDHMGTFRSILDQLDWIVNKFKEDSSLELFLLIHNLDSQMLRGEKSQQIIGQLSSLHNIYLIASIDHLNAPLMWDHAKQSLFNWLWYETTTYSPYTEETSYENSLLVKQSGSLPLSSLTHVLRSLTPNARGIFRLLIKYQLDNQDNPSYIGLSFQDFYQQCREAFLVNSDLTLRAQLTEFRDHKLIRTKKGTDGVEYLLIPVDNGTLTDFLEKEEEEA
- PLU mean [6]: 0.297
- PLU mean [7]: 0.227
- PLU mean [8]: 0.119
- PLU mean [9]: 0.43
